Laboratory results from article PMC12918760.

T1: NONO in NONO/SFPQ heterodimer;SFPQ in NONO/SFPQ heterodimer (human;human?, UniProt Q15233;P23246 53-312;276-535, |)
T1 sequence 1: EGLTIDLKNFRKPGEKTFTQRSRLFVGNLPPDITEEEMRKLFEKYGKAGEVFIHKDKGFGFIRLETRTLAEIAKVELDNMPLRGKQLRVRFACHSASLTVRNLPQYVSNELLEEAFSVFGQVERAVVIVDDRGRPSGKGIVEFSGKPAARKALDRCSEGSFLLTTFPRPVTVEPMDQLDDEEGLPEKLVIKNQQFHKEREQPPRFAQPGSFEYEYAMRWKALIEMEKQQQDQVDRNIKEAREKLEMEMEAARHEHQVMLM
T1 sequence 2: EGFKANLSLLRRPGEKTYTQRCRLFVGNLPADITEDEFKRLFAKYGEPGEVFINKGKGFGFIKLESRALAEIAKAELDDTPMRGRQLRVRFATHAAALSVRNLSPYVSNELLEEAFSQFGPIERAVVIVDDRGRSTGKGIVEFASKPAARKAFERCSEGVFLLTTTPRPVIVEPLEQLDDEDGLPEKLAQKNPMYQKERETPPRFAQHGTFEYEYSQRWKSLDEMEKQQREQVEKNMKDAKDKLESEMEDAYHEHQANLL

T2: NONO homodimer (human, UniProt Q15233 53-312)
T2 sequence: T1 sequence 1


Experiments:
[1] = target: T1, NONO in NONO/SFPQ heterodimer;SFPQ in …; assay: MST
NONO homodimer = target: T2, NONO homodimer; assay: MST

Binder	binding result [1]	binding result (NONO homodimer)
TUGUGCCGUCU (ssRNA, 5' residue printed as T) [GU-rich RNA oligo 2]	binds	binds
TGUGUGUGGCCGU (ssRNA, 5' residue printed as T) [GU-rich RNA oligo 1]	binds	binds
